Assay results reported in a protein production outcome set (Wang et al. 2014).

Assay: label from the status in PepcDB records

Sequence: MMENQVNEQTVTSPENGSSATGYNSGIWDGLSVVALIGGAIASVVLPANPAAGVIPVAAGVGLHLFNRKQLEEHLLANQRATAAQIVQLVNQNQAHLQEYLQKFQGDIQTSLGQQQQAIAANQENLTKALAEKSLALQGKLEAFQAAAAQTHAGLDIKHQDLLAVVTELRTMEGCTQSLAAYPHAEAYYQRGLSHYRLEDWAEAVRDCTEAIRLRGDLAGAFHHRGMAYARLDNRKQATDDLRQAYKLYFDQGDLDSYEVARALHKQYYEGPVEDLELEPTPVMPPAEGVGHEAYIADPDREIKPLLAEESDTTAANLFG
- protein production: failed

Sequence: MSGPRAGFYRQELNKTVWEVPQRLQGLRPVGSGAYGSVCSAYDARLRQKVAVKKLSRPFQSLIHARRTYRELRLLKHLKHENVIGLLDVFTPATSIEDFSEVYLVTTLMGADLNNIVKCQAGAHQGARLALDEHVQFLVYQLLRGLKYIHSAGIIHRDLKPSNVAVNEDCELRILDFGLARQADEEMTGYVATRWYRAPEIMLNWMHYNQTVDIWSVGCIMAELLQGKALFPGSDYIDQLKRIMEVVGTPSPEVLAKISSEHARTYIQSLPPMPQKDLSSIFRGANPLAIDLLGRMLVLDSDQRVSAAEALAHAYFSQYHDPEDEPEAEPYDESVEAKERTLEEWKELTYQEVLSFKPPEPPKPPGSLEIEQ
- protein production: failed

Sequence: MVIIGSKGCAKEILTALKWDNVEETVSLFDNINTDISDAYYDFPIIKSWNELEQHLKTDSKVIIGVGGGQRREVLARKIACLGGVLTTFISQKALVGGYDNTIEPGVVILSGATITCNVSIGQGTFINKSTVISHDVRIGRYCEVSPGAKVLGRAIIGDRTEIGANAVILPDVIVGADCKIGAGAVVTRNIDSHTTVAGVPARSITKSSNNAFKLKSKIRNLLYHIRIADFRKLREYNHYVFGKRKLMFLELLSHSWMYGASFENYYELQFFKKSRTECRQYLTSSLRHELTRQVNDPCEALVLKDKVRFSEVFEDILGRRVMTFDEIKRQMHDPYSISINEVVIKPIKGQAGQGIIFPMQNFTSLRQLHDYVISTVKKPDEYLYEERIIQHSALNKLNPSSLNTLRIVTYYDESINKVDVWSVVLRIGIKARTDNFATGGIAVLVDHRGVVCQPAIIKHPSGERFHIHPVSGEKITGCIIPYYDQAIALAKQAAMRIPKVRSIGWDVAITETGPYMLEGNDNWCMTLFQLPGGEGLRHLANSVCNMFSVYE
- protein production: failed

Sequence: MMTLIRITSADDSRLNRLIPLYEESFPESERRKIGQLKRMIENHAPMYFNAIECDGELSGMFVYWDMGDFYYLEHLAVFPEMRNKKIGQQVLDYVAEHLKGVRLLEVEPTEDEMTTRRVNYYRRNGYEVLDKTYVQPSYHA
- protein production: failed

Sequence: MSILDILILLAPIFFVIVLGWFAGHFGSYDAKSAKGVSTLVTKYALPAHFIAGILTTSRSEFLSQVPLMISLIIGIVGFYIIILLVCRFIFKYDLTNSSVFSLNSAQPTFAFMGIPVLGSLFGANEVAIPIAVTGIVVNAILDPLAIIIATVGESSKKNEESGDSFWKMTGKSILHGLCEPLAAAPLISMILVLVFNFTLPELGVKMLDQLGSTTSGVALFAVGVTVGIRKIKLSMPAIGIALLKVAVQPALMFLIALAIGLPADQTTKAILLVAFPGSAVAAMIATRFEKQEEETATAFVVSAILSLISLPIIIALTA
- protein production: failed

Sequence: MTRAINDPGNEDPGSLLETDADALLGGAAAQAPEERCRLAAQACIRACERYLALCTESSREQRQHAGDCADLCRLAALLLERRSPWAPAACELAARYALACAERCDGDEPLERECAGACRRFVEACRPLLPA
- protein production: not failed

Sequence: MRYHGGLLLGAFDDDGKIIGMSFGYPGFRNGKLYLYSHMAGVVENKKYSNVGYSLKMKQRDLAASMGYDLIAWTFDPFNPLNAYFNISKLGAITRTYIKNFYGVMNDGINRGMRTDRVVAEWWI
- protein production: failed

Sequence: MNITLGYIDPVAFSLGPIQVRWYGIIIACGILLGYFIAQAALKQVGLHKDTLIDIIFYSAIVGFIVARIYFVTFQWPYYMNHLSEIPKIWHGGIAIHGGLIGGLISGIIVCKIKNLHPFQIGDIVAPSIILAQGIGRWGNFMNHEAHGGPVSRAFLEHLHLPDFIIRNMYIEGQYYHPTFLYESIWDVIGFVILITLRKRLKLGETFFGYLIWYSVGRFFVEAMRTDSLMLTSHIRVAQLVSVVLILISVIFVIYRRVKYQPIKYENSGPLTWPIKKAK
- protein production: failed

Sequence: MVKWYKTYLEVYGKSFDEISDDSIRKVKRQLKERQNDSPLVSVVLIAHNEERHLISCIWSLSENHCHFPIEIIAVNNNSTDKTEEILKSLGVTYYNETKKGPGYARQCGLDHAKGKYHICIDADTLYPPHYIETHVKYLMNPKVACTFSLWSFMVDERHSRFGLWCYEGLRDIYLRLQAIQRPELCVRGMAFSFNTEIGRRFGFRTDIIRGEDGSLALAMKPYGKIVFITSRKARVLTSNGTLNSEGSLIDNIWIRVIKALKEITGLFIKKTAYKDKDSNLIKLEHHHHHH
- protein production: failed

Sequence: MLKGIPKIIPPELLKVLCEMGHGDQLVIADGNFPAESIGKNAIVVRMDGHGGGEILKAILTVFPLDTYVDKPATLMEKVPGDTVATPIWDVYAGLIKEHDERGADAIGSLERFAFYEQAKNAYCVIASGESAQYANLILQKGVVFNAE
- protein production: not failed

Sequence: MKLMQIRKPLLKSSLLDQNLTEEEVNMKFVQDLLNWVDEMQVQLDRTEWGSDLPSVESHLENHKNVHRAIEEFESSLKEAKISEIQMTAPLKLSYTDKLHRLESQYAKLLNTSRNQERHLDTLHNFVTRATNELIWLNEKEESEVAYDWSERNSSVARKKSYHAELMRELEQKEESIKAVQEIAEQLLLENHPARLTIEAYRAAMQTQWSWILQLCQCVEQHIQE
- protein production: not failed

Sequence: MKKMLPESKVESIRKEGFLNRAVEAYRFFYPTVSNVSNFKALHDLGITENHDFIIQLTTPDLNVLTQNSDTPYCLGTGNTENGPVVIELPLGAIVGVADDINFKFITNMGLTGDEEGKGAKYLYLPPNYDGDIPEGYIVRKPSSFRFLICLRAMVHQASDYEKAFELLKTVKFYPLKEAKNNPTSTFHDFSHRKAISTPYYVEGKFDYWEVIKWALDNDETDPEYYQMYGLLKAIGLAPNKEFNPDSDTKALLIEAAEKADKMMFVNSFNTDDPAAIVWPGKNWEWAVYGENNDFYEKTYLNLPVRERWFYQATLETHMMFMHKVGFGSVYMLGVKDKEGNYLDGGKSYTLKVPTPVPTSIFWSVTVYEMDTRSEIVTEQFMPALNSIKDTFEADADGNTTLYFGPNPPEDESLPWIQTVPDANWFTYFRIYGPTEPAFDNSWQLYDFEEVK
- protein production: failed

Sequence: MATTSAQTSPTEFGAGLPEAEDHSESAEPQSVEAEVIDERYADVWEKIQHARTIDVHDDAEVRKQRNFFDDKQKFMTQVTQRAEPFLYYIVSQLEARNMPLELALLPIVESGYNPLAQANGPAGLWQMIPATGRNFGLTINSAYDGRKDALASTDAVLDYLQHLYNTLGNDWINAVAGYNSGELVIKAAIDRNKAKGKPTDFWSLNIPARQVQTVPKWLAFIQIIREPSHYNLKVMPIANRPFLERLPAPNGVEISQIANAAGLTKAEFKTYNPGYRQSVIPSKGKYQIALPIENIGHYQENQHKLYAQKRYDSQTYIVKSGDSLGTIAAKFDLSVKELKQANNLTSDRLKIGQELTLLTPMAANDNEPEPVKTKANTDKSSTKANASSTKATSSKSTDKPVAKAKTYKVKSGDSLDKIARKSKVKLADLMKWNQLNAKSIIKPGQELKISELEHHHHHH
- protein production: failed

Sequence: SSEQIRRAPKVLLHDHLDGGLRPGTIVELARDAGYSGLPETDPDKLGIWFREAADSGSLERYLETFAHTCAVMQTRAALVRVAAECAEDLAADGVVYAEVRYAPEQHLEAGLSLEEVVEAVNEGFRAGERRAKEDGNRIRVGALLTAMRHAARALEIAELANRYRDAGVVGFDIAGAEAGFPPTRHLDAFEYLKRENNHFTIHAGEAFGLPSIWQALQWCGADRLGHGVRIIDDIQVREDGSVKLGRLASYVRDKRIPLELCPSSNLQTGAASSYADHPIGLLRRLHFRATVNTDNRLMSGTSMSREFEHLVDAFGYTLDDMAWFSVNAMKSAFIPFDERLAMINDV
- protein production: failed

Sequence: MTGYGKTFALLGTCATLLGPPLSAQTGSVLSDLQNEEVQARYRAAAAERIACPRIEGDAALMAAFAKDAASKWDRAAMGCATEYGARAMEALSLPTNLIWAVATFRTDNIETHLQVLGAHLDYFEVLDKSYSAHYQGIEMATELGLRWEQARERSETLMTRIDPLVPKLTEARLLRAAYLLASTLRETPPEVQNTAVAAALEDLQIAIAENPEALDGLGPLLLGQVLAVLPEFLGGDILAAIDLLEQAHALNPTDLSVHHTLVEAYLGERETDKALALLRHAASIDPSTENPQDYADEMKYLGGLALRAGAPDLARQMAGHRSAILAAHPQLDPRKEMAALGHGGADPLTGKKPDDLN
- protein production: failed

Sequence: MQAMTERLEAMLAQGTDNMLLRFTLGKTYAEHEQFDAALPHLRAALDFDPTYSVAWKWLGKTLQGQGDRAGARQAWESGLAAAQSRGDQQVVKELQVFLRRLAREDAQHGG
- protein production: failed

Sequence: MNLTKRITAWFLTLVMVLGLIPQTMFAQEIATSPLQYEATQEMNEDKTEATISIKFTETETIQLEKVTLSDGTEKVEDLSEVTYTVSENGKYDFKVNYVMEGTPQEETISVEVSGLEEKIKELVTNQNIELDVDIQLKGATYFDGHPNPFFGGTKQYMISDRSIIPYNGMQLMELIVEIPYQEGLEIQGITPSAASQYPDLSKVEKDDKNKKWTYSFYFYKNGTYEFTIDYILNGENKITSTSFTVDGLVSIKDIAMRRHLINEYGEFSGFRYQDGQYVTQDILAKEPSVGFFTFGLDGDNGTTAEYTTSLDGLQYLKNATGLYLYDCKKLAEGETIEPVTEGYYPNMKLFRVSNLNERPNMPKSAYNAELVTKSIANMPALTELVINGTGFSDCTVFRKITAGSLDYLQAMANNIVSLDGIESQQNLSSINIGQNKIKSIDPLSKLNQINFLNLMRNEVFDLRPINESLNQKAVAGNTVYGFAAREQNITYDRTVITPLQNGMYTVELPMPIDIDGSLTNTSSVSLKFANGTTKTYSTSQSEGKTYISIPEGDVDSSQENPFEGAEFKFSFNNNNGADPRTKAWFTGTVTFKASPIATNYHVIYDFISGTRGKSLPPEITNLLPIDSTKYYEGDTITAKNPTQLELEVSDGVWTFEGYDADSKTANANSANEDGNIQFTGTWIFETKKYDVSYKFESINTDKEVPKEILDMLPTVGSVEHGKTVNAPETEYKDVKVTDGVWSFKGWTPVKYENVTGNVEFVGKWEFKKNASIINHIPTISASDKTLTVGDTFDPLKDVTARDKEDGDLTKEIEILKNEVNTSKARVYEVTYKVTDSKGASSIKTIYVTVNPKMEELNRIPTISASDKTLTVGDTFDPLKDVTATDKEDGDLTKEIEILKNEVNTSEAGVYEVTYKVTDSKGASSIKTIYVTVNPKMEELNRIPTISASDKTLTVGDTFDSLKDVTATDKEDGDLTKEIEILKNEVNTSKAGVYEVTYKVTDSKGASSIKTIKVTVIEKNIPIIPNEPDKPSKPDTNKPEDNGSVGTGDKTNGVFWTMLSIICGISVIGVYRKKREINQ
- protein production: failed

Sequence: VGKLKIYFGFAAGVGKTYAMLSDAKDQLAAGVDVVAGYIEPHAREETLRMLEGIPIIPPKAINHKNIALKEFDLDEALKRKPELILVDELAHTNASGVRNKKRFQDVEELLQAGIDVYTTVNVQHIESLNDIVEGITKVAVRETIPDYVFDEADRVKLIDIEPDELLKRLEQGKIYQPARAKTAMQNFFTRENLKLLREIAMRKAADRISHEYDQTGIYPE
- protein production: not failed

Sequence: MIDTSIFQDKTAVYYTLGCKLNFSETSTIGKVLREAGVRTVRKGEKADICVVNTCSVTEVADKKCRQAIHRLVKQHPGAFVVVTGCYAQLKPDAVAKIEGVDVVLGAEQKKDLLQYLGDLRKHESGEAHTSALKDIRSFAPSCSRGDRTRFFLKVQDGCDYYCSYCTIPFARGRSRNGSIASLVEQARQAAAEGGKEIVLTGVNIGDFGKSTGETFFDLVKALDDVECIERYRISSIEPNLLTDEIIEFVSRSKRFMPHFHIPLQSGSDEVLKLMRRRYDTALFASKVKRIKEVMPDAFIGVDVIVGTRGETEEYFEQAYRFIQSLDVTQLHVFSYSERPGTQALKIEHVVSSEEKHRRSRLLLDLSDEKTRAFYARHIGQTMPVLLERSKPGTPMHGFTPNYIRVEVPHDDALDNQVIPVRMGDFNEEGTALSGAFGDK
- protein production: failed
